We go through two molecules from US20100178296A1 (SCHERING, published 2010).

Sequences and labels used below:
T1: wild-type human CD200RLa extracellular domain fused to the Fc region of human IgG1 (human, UniProt Q6Q8B3 24-239)
T1 construct: also called wild-type human CD200RLa fusion protein; not shown: Fc region of human IgG1
T1 sequence: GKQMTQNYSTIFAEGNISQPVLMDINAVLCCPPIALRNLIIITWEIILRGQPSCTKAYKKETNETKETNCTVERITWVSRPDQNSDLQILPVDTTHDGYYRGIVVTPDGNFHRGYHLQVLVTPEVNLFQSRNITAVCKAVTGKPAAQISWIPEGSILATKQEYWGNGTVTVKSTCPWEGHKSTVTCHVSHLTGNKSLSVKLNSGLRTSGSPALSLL

T2: CYS mutated human CD200RLa extracellular domain fused to the Fc region of human IgG1 (human, UniProt Q6Q8B3 24-239)
T2 construct: also called CYS mutated human CD200RLa fusion protein; Human CD200RLa-Cys-mut; not shown: Fc region of human IgG1
T2 chain: T1 sequence with G102C, L157C

B1: CYS mutated human CD200RLa, full length, on Ba/F3 cells expressing human DAP12 (receptor)
chain: GKQMTQNYSTIFAEGNISQPVLMDINAVLCCPPIALRNLIIITWEIILRGQPSCTKAYKKETNETKETNCTVERITWVSRPDQNSDLQILPVDTTHDGYYRCIVVTPDGNFHRGYHLQVLVTPEVNLFQSRNITAVCKAVTGKPAAQISWIPEGSICATKQEYWGNGTVTVKSTCPWEGHKSTVTCHVSHLTGNKSLSVKLNSGLRTSGSPALSLLIILYVKLSLFVVILVTTGFVFFQRINHVRKVL
notes: also called Human CD200RLa-Cys-mut; CYS mutated form of the receptor
B2: DX182, rat anti-human inhibitory CD200R monoclonal antibody (antibody, V domains shown)
VL: EVQMTQSPSTLTASPGESVSINCKASKNIRSYLAWYQQKPGKPNKLLIYSGSTLHSGTPSRFSGSGFGTDFTLTIRNLEPEDFGLYYCQQHHEYPLTFGSGTKLEIKR
VH: EIQLQESGPGLVKPSQSLSLTCSVTGYTITSGYDWSWIRKFPGNKMEWMGYINYGGSTNYKPSLGSRISITRDTSKNQFFLQLNSVSPEDTATYYCAKYNEYKSYIYDWYFDFWGPGTMVTVSS
notes: Rat hybridoma antibody; Rat IgG2a served as its isotype control; also called rat DX182; anti-huCD200R

Positions count from the first letter of the chain named.

The target in test [1] is T3, human DAP12 with a FLAG epitope at the N terminus, in Ba/F3 cells (human, UniProt O43914 22-113).
T3 construct: whole, on cells; also called FLAG-tagged DAP12
T3 sequence (O43914 22-113): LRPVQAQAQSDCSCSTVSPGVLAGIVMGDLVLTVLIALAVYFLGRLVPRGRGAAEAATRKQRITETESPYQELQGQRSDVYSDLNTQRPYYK
Put plainly: surface appearance of FLAG-DAP12 on Ba/F3 transfectants, flow cytometry with anti-FLAG M2.

Test [2] has as its target T1, wild-type human CD200RLa extracellular …. The experiment in a line: indirect ELISA on the fusion protein.
The target in test [3] is T2, CYS mutated human CD200RLa …. The experiment in a line: indirect ELISA on the fusion protein.
Test [4] addresses B1. Put plainly: flow cytometry on Ba/F3 transfectants.

For the molecule B1, the binding result in test [1] is reported as “binds”.
Consider B2, for which the binding result in test [2], in test [3] and in test [4] was “no binding” each time.
